Values belong to the molecule of their own block, whether it stands above or below them.
Key:
[1] = test system: GFP-14-3-3β and its binding proteins; test: GFP-14-3-3β co-IP with LC-MS/MS label-free quantification, untreated versus PP1c-treated; parameters: species or system human; conditions: PP1 vs untreated; label-free quantification
[2] = test system: GFP-14-3-3β; test: GFP-14-3-3β co-IP with LC-MS/MS, untreated GFP-14-3-3β versus GFP control (14-3-3 interactome); assay type: binding, human; conditions: untreated vs GFP; label-free quantification

Difference (log2), PP1 vs untreated [1]: 1.025 log2
B1: ZC3HAV1 (protein, UniProt Q7Z2W4 2-902, looked up)
Zinc finger CCCH-type …: ADPEVCCFITKILCAHGGRMALDALLQEIALSEPQLCEVLQVAGPDRFVVLETGGEAGITRSVVATTRARVCRRKYCQRPCDNLHLCKLNLLGRCNYSQSERNLCKYSHEVLSEENFKVLKNHELSGLNKEELAVLLLQSDPFFMPEICKSYKGEGRQQICNQQPPCSRLHICDHFTRGNCRFPNCLRSHNLMDRKVLAIMREHGLNPDVVQNIQDICNSKHMQKNPPGPRAPSSHRRNMAYRARSKSRDRFFQGSQEFLASASASAERSCTPSPDQISHRASLEDAPVDDLTRKFTYLGSQDRARPPSGSSKATDLGGTSQAGTSQRFLENGSQEDLLHGNPGSTYLASNSTSAPNWKSLTSWTNDQGARRKTVFSPTLPAARSSLGSLQTPEAVTTRKGTGLLSSDYRIINGKSGTQDIQPGPLFNNNADGVATDITSTRSLNYKSTSSGHREISSPRIQDAGPASRDVQATGRIADDADPRVALVNDSLSDVTSTTSSRVDDHDSEEICLDHLCKGCPLNGSCSKVHFHLPYRWQMLIGKTWTDFEHMETIEKGYCNPGIHLCSVGSYTINFRVMSCDSFPIRRLSTPSSVTKPANSVFTTKWIWYWKNESGTWIQYGEEKDKRKNSNVDSSYLESLYQSCPRGVVPFQAGSRNYELSFQGMIQTNIASKTQKDVIRRPTFVPQWYVQQMKRGPDHQPAKTSSVSLTATFRPQEDFCFLSSKKYKLSEIHHLHPEYVRVSEHFKASMKNFKIEKIKKIENSELLDKFTWKKSQMKEEGKLLFYATSRAYVESICSNNFDSFLHETHENKYGKGIYFAKDAIYSHKNCPYDAKNVVMFVAQVLVGKFTEGNITYTSPPPQFDSCVDTRSNPSVFVIFQKDQVYPQYVIEYTEDKACVIS
Difference (log2), untreated vs GFP [2]: -0.3627 log2

Difference (log2), PP1 vs untreated [1]: 1.025 log2
B2: SLC25A3 (protein, UniProt Q00325 50-362, looked up)
Solute carrier family 25 …: AVEEQYSCDYGSGRFFILCGLGGIISCGTTHTALVPLDLVKCRMQVDPQKYKGIFNGFSVTLKEDGVRGLAKGWAPTFLGYSMQGLCKFGFYEVFKVLYSNMLGEENTYLWRTSLYLAASASAEFFADIALAPMEAAKVRIQTQPGYANTLRDAAPKMYKEEGLKAFYKGVAPLWMRQIPYTMMKFACFERTVEALYKFVVPKPRSECSKPEQLVVTFVAGYIAGVFCAIVSHPADSVVSVLNKEKGSSASLVLKRLGFKGVWKGLFARIIMIGTLTALQWFIYDSVKVYFRLPRPPPPEMPESLKKKLGLTQ
Difference (log2), untreated vs GFP [2]: 1.257 log2

Difference (log2), PP1 vs untreated [1]: 1.003 log2
B3: MGST1 (protein, UniProt P10620 1-155, looked up)
Microsomal glutathione …: MVDLTQVMDDEVFMAFASYATIILSKMMLMSTATAFYRLTRKVFANPEDCVAFGKGENAKKYLRTDDRVERVRRAHLNDLENIIPFLGIGLLYSLSGPDPSTAILHFRLFVGARIYHTIAYLTPLPQPNRALSFFVGYGVTLSMAYRLLKSKLYL
Difference (log2), untreated vs GFP [2]: 1.613 log2

Difference (log2), PP1 vs untreated [1]: 1.002 log2
B4: RPN1 (protein, UniProt P04843 24-607, looked up)
Dolichyl-diphosphooligosacchar …: ASSEAPPLINEDVKRTVDLSSHLAKVTAEVVLAHLGGGSTSRATSFLLALEPELEARLAHLGVQVKGEDEEENNLEVRETKIKGKSGRFFTVKLPVALDPGAKISVIVETVYTHVLHPYPTQITQSEKQFVVFEGNHYFYSPYPTKTQTMRVKLASRNVESYTKLGNPTRSEDLLDYGPFRDVPAYSQDTFKVHYENNSPFLTITSMTRVIEVSHWGNIAVEENVDLKHTGAVLKGPFSRYDYQRQPDSGISSIRSFKTILPAAAQDVYYRDEIGNVSTSHLLILDDSVEMEIRPRFPLFGGWKTHYIVGYNLPSYEYLYNLGDQYALKMRFVDHVFDEQVIDSLTVKIILPEGAKNIEIDSPYEISRAPDELHYTYLDTFGRPVIVAYKKNLVEQHIQDIVVHYTFNKVLMLQEPLLVVAAFYILFFTVIIYVRLDFSITKDPAAEARMKVACITEQVLTLVNKRIGLYRHFDETVNRYKQSRDISTLNSGKKSLETEHKALTSEIALLQSRLKTEGSDLCDRVSEMQKLDAQVKELVLKSAVEAERLVAGKLKKDTYIENEKLISGKRQELVTKIDHILDAL
Difference (log2), untreated vs GFP [2]: 0.04558 log2

From publication PMC7367873, “Dissecting the sequence determinants for dephosphorylation by the catalytic subunits of phosphatases PP1 and PP2A” (Nature Communications, 2020)
